Results on 1 molecule are retold here after patent US9969998B2, “Compositions of adenosine deaminase-2 (ADA2), variants thereof and methods of using same” (Halozyme, Inc., priority 2014, dated 2018).

The experiment concerns CT26 syngeneic tumors. Description: Tumor growth inhibition of combination therapy with anti-PD-1 and anti-CTLA4, CT26 peritibial tumor model. Format: in vivo, Balb/C mice. To be noted: study day 10. How it is done: The murine CT26 syngeneic tumor model was used to compare the antitumor activity of combination therapy using PEGylated ADA2 with checkpoint inhibitors anti-PD-1 and anti-CTLA4 antibodies. CT26 syngeneic tumors were produced by injecting 2×10^5 CT26 cells in 0.05 mL injection volume per animal into the right peritibial muscle of male Balb/C mice. Tumor bearing mice were staged into treatment groups when the average tumor size reached 150 mm^3.
For treatment, animals were randomized into 8 groups (n=8/group) as follows: 1) saline vehicle control, 2) PEG-ADA2-K374D, 3) α-CTLA4 antibody (Clone 9D9, Cat. No. BE0164; BioXCell, West Lebanon, N.H., 4) α-PD-1 antibody (Clone RMP1-14, Cat. No. BE0146; BioXCell, West Lebanon, N.H.), 5) PEG-ADA2-K374D+α-CTLA4; 6) PEG-K374D+α-PD-1; 7) α-CTLA4+α-PD-1, or 8) Triple combo (PEG-ADA2-K374D+α-CTLA4+α-PD-1). PEG-ADA2-K374D was dosed intravenously 3× weekly at 10 mg/kg, α-CTLA4 was dosed intraperiotoneally biweekly at 4 mg/kg, and α-PD-1 was dosed intraperitoneally biweekly at 4 mg/kg. The sequence of dosing in the combination groups was as follows: PEG-ADA2-K374D followed by α-CTLA4 followed by α-PD-1.
Tumor volume was assessed twice weekly via ultrasound imaging using the Vevo2100 (Visual Sonics, Toronto, Canada) to determine tumor growth inhibition (TGI). Animals were anesthetized using light isoflurane anesthesia while the tumor volumes were measured. For tumor measurement, the region of interest was covered in ultrasound gel (Parker Laboratories, Fairfield, N.J.), and the RMV-716 (focal depth=17.5 mm) scan head was positioned directly over the region of interest. While in 2D-Mode, the approximate center of the tumor was located, and subsequently an image (˜150-200 frames) was captured using 3D-mode. Approximately 15-30 frames out of 150-200 frames were analyzed and a tumor volume calculated and expressed in mm^3. Tumor growth Inhibition (TGI) was calculated as described above.

B1: PEG-K374D: rHuADA2-K374D (SEQ ID NO:20) PEGylated on surface exposed lysines with linear PEG-20K (conjugate)
chain: IDETRAHLLLKEKMMRLGGRLVLNTKEELANERLMTLKIAEMKEAMRTLIFPPSMHFFQAKHLIERSQVFNILRMMPKGAALHLHDIGIVTMDWLVRNVTYRPHCHICFTPRGIMQFRFAHPTPRPSEKCSKWILLEDYRKRVQNVTEFDDSLLRNFTLVTQHPEVIYTNQNVVWSKFETIFFTISGLIHYAPVFRDYVFRSMQEFYEDNVLYMEIRARLLPVYELSGEHHDEEWSVKTYQEVAQKFVETHPEFIGIKIIYSDHRSKDVAVIAESIRMAMGLRIKFPTVVAGFDLVGHEDTGHSLHDYKEALMIPAKDGVKLPYFFHAGETDWQGTSIDRNILDALMLNTTRIGHGFALSKHPAVRTYSWDKDIPIEVCPISNQVLKLVSDLRNHPVATLMATGHPMVISSDDPAMFGAKGLSYDFYEVFMGIGGMKADLRTLKQLAMNSIKYSTLLESEKNTFMEIWKKRWDKFIADVATK
modifications: linear PEG-20K on surface lysines; human ADA2 K371D, mature numbering
Take B1: the “Average Group Tumor Volume, SD10” value (PEG-ADA2-K374D 10 mg/kg IV 3x weekly, α-CTLA4 4 mg/kg IP biweekly, α-PD-1 4 mg/kg IP biweekly, ultrasound) turned out to be 1499.11 mm^3. Besides, for the setting “PEG-ADA2-K374D 10 mg/kg IV 3x weekly, α-CTLA4 4 mg/kg IP, α-PD-1 4 mg/kg IP biweekly”, the “Tumor Growth Inhibition” value is “exhibited tumor growth inhibition activity”. The inhibition of tumour growth (TGI) (compared to vehicle control) was 5%. Also, where the note is “range of tumor volume of all animals in the group”, the “Volume Range” value is listed as 1213-1594 mm^3.

Broadly, the TGI is the reduction of tumour growth relative to the control group.
